Source: patent US20200392472

Tested on: T1, GeoCas9 (Geobacillus stearothermophilus)
T1 sequence: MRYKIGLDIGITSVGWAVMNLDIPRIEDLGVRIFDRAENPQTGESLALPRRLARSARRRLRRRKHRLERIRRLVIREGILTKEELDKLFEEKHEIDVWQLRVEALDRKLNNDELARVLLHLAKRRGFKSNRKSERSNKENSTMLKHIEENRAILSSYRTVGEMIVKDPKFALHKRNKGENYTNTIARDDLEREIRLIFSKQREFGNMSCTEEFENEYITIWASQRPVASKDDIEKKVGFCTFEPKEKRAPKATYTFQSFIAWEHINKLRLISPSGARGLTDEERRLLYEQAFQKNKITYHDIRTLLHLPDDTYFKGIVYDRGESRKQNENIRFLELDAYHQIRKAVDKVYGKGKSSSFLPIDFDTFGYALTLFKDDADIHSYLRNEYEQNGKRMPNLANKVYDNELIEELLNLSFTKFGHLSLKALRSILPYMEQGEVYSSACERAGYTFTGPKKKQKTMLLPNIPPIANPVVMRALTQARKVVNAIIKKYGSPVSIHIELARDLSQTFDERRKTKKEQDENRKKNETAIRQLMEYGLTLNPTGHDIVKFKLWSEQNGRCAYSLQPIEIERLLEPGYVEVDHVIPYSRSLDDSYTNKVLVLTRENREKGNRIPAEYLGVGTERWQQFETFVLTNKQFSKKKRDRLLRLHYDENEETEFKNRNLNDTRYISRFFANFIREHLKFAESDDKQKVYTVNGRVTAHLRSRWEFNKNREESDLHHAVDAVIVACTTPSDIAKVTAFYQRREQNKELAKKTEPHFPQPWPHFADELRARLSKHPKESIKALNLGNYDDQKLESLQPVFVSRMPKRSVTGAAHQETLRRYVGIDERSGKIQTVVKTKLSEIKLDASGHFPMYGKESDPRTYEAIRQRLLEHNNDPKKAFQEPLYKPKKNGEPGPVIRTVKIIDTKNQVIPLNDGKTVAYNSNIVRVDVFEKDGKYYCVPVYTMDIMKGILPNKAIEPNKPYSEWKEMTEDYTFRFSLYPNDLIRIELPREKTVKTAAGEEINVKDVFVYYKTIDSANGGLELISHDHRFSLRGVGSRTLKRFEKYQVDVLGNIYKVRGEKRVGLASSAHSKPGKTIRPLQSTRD
Test: cleavage_in_vitro
Details: 21-22 nt spacer cleaves more than 5-fold faster than 20 nt; 37 C; exact substrate PAM not given

## GeoCas9 sgRNA with 20 nt spacer ; radiolabeled target DNA with CRAA PAM
  cleavage rate fold increase: > 5 fold
